{"source": "patent US6733762", "key": {"[1]": {"target": "Zot receptor / Zot binding sites on human monocytes/macrophages (CD14+) (human)", "assay": "flow cytometry, MESF calibration, several volunteers"}, "[2]": {"target": "Zot binding sites on human T lymphocytes (CD3+) (human)", "assay": "flow cytometry, MESF calibration, several volunteers"}, "[3]": {"target": "Zot receptor / Zot binding sites on human monocytes/macrophages (CD14+) (human)", "assay": "real-time flow cytometry at 37 C, Zot-FITC 40 ug/ml, cells gated on CD14"}, "[4]": {"target": "Zot binding sites on human T lymphocytes (CD3+) (human)", "assay": "real-time flow cytometry at 37 C, Zot-FITC 40 ug/ml, cells gated on CD3"}, "[5]": {"target": "Zot receptor / Zot binding sites on human monocytes/macrophages (CD14+) (human)", "assay": "4-color flow cytometry, Zot-FITC 40 ug/ml on PBMC; reference: T or B lymphocytes"}, "[6]": {"target": "Zot receptor / Zot binding sites on human monocytes/macrophages (CD14+) (human)", "assay": "flow cytometry, MFI converted with Quantum 26 MESF kit, saturation conditions"}, "[7]": {"target": "Zot binding sites on human T lymphocytes (CD3+) (human)", "assay": "flow cytometry, MFI converted with Quantum 26 MESF kit, saturation conditions"}, "[8]": {"target": "Zot receptor / Zot binding sites on human monocytes/macrophages (CD14+) (human)", "assay": "flow cytometry, MESF calibration, several volunteers; reference: lymphocytes"}, "[9]": {"target": "Zot receptor / Zot binding sites on human monocytes/macrophages (CD14+) (human)"}, "[10]": {"target": "Zot receptor / Zot binding sites on human monocytes/macrophages (CD14+) (human)", "remark": "listed apart in the source"}, "[11]": {"target": "Zot binding sites on human T lymphocytes (CD3+) (human)"}}, "note": "Several values for one entry are separate records, joined by “and”; a condition that tells them apart may be missing. Equal entries are not always repeated.", "data": [{"substance": "Zot-FITC (6xHis-Zot conjugated to fluorescein isothiocyanate, Examples 4-7) (from UniProt P38442 1-399)", "values": [{"measurement": "Zot binding sites/cell (mean of several volunteers) (binding sites/cell)", "setting": "[1]", "value": 105000}, {"measurement": "Zot binding sites/cell (mean of several volunteers) (binding sites/cell)", "setting": "[2]", "value": 10700}, {"measurement": "time to reach binding equilibrium", "setting": "[3]", "value": "< 2", "unit": "min"}, {"measurement": "time to reach binding equilibrium", "setting": "[4]", "value": "< 2", "unit": "min"}, {"measurement": "fold of binding against T or B lymphocytes", "setting": "[5]", "value": "5 fold and 8 fold"}, {"measurement": "Zot-binding sites/cell (binding sites/cell)", "setting": "[6]", "value": 106000}, {"measurement": "Zot-binding sites/cell (binding sites/cell)", "setting": "[7]", "value": 9000}, {"measurement": "fold of binding sites/cell against lymphocytes", "setting": "[8]", "value": 10, "unit": "fold"}]}, {"substance": "6xHis-Zot fusion protein (unlabeled) (from UniProt P38442 1-399)", "values": [{"measurement": "% suppression of Zot-FITC mean fluorescence intensity", "setting": "[9]", "value": "24% and 43%"}]}, {"substance": "purified Zot (cleaved from the MBP-Zot fusion protein with Factor Xa) (from UniProt P38442 9-399)", "values": [{"measurement": "% decrease of Zot-FITC binding", "setting": "[10]", "value": 33, "unit": "%"}, {"measurement": "% decrease of Zot-FITC binding", "setting": "[11]", "value": 33, "unit": "%"}]}]}
